Data published in patent US11260100B2, “Compositions targeting the interaction domain between p27Kip1 and Brk and methods of use thereof to inhibit p27 Y phosphorylation and cdk4 activity” (The Research Foundation for the State University of New York, priority 2014, dated 2022).

Tests used:
MCF7-ALT cells = test: Long-term proliferation arrest at IC100 (FIG. 15A); assay type: cell-based, human; conditions: IC100 Palbociclib, doxycycline induced ALT, replenished every two days
Experimental: FIGS. 15A-15C: ALT and PD treatment increases senescence, a clinical goal. FIG. 15A: MCF7-ALT cells were treated with IC100 concentration of Palbociclib (PD) or doxycycline to induce ALT. Drugs were replenished every two days and proliferation was determined by cell counting as indicated. Proliferation rates were standardized to the rate of proliferation seen in DMSO treated cells (control). PD treated cells were arrested for 10 days, before escape (proliferation) was detected. ALT expressing cells were arrested for 18 days before escape (proliferation) was detected. ALT expressing and PD treated cells were arrested for 30 days, with no escape detected. […] Proliferation was assessed by counting. […] Viability was measured by trypan blue staining and the ALT expressing, PD treated cells that weren't growing were viable. […]
MCF7-ALT cells were treated with a IC100 concentration of Palbociclib (PD) or doxycycline to induce ALT. Drugs were replenished every two days and proliferation was determined by cell counting as indicated. […] PD treated cells were arrested for 10 days, before escape (proliferation) was detected. ALT expressing cells were arrested for 18 days before escape (proliferation) was detected. ALT expressing and PD treated cells were arrested for 30 days, with no escape detected. […] Proliferation was assessed by counting. […]

cdk4 = target: T1, cdk4 (Homo sapiens, UniProt P11802); test: Immunoblot of pRBser780 as measure of active cdk4 (FIG. 10); assay type: cell-based; conditions: MCF7, drugs at IC50
T1 construct: added to or expressed in MCF7 breast cancer cells on day 2 post plating; endogenous in cells; host or cells: MCF7 (ALT-MCF7 tetracycline-inducible line)
T1 sequence (P11802 2-303 limits assumed): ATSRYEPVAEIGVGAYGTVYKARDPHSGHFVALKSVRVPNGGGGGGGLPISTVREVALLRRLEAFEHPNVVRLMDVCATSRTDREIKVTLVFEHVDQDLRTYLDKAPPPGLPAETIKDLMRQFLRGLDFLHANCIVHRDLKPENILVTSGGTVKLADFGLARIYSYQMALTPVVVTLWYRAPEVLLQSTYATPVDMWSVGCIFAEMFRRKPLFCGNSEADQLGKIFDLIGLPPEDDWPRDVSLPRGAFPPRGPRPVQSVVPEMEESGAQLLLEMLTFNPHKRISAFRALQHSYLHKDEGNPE
T1 sequence (P24385 whole entry partner): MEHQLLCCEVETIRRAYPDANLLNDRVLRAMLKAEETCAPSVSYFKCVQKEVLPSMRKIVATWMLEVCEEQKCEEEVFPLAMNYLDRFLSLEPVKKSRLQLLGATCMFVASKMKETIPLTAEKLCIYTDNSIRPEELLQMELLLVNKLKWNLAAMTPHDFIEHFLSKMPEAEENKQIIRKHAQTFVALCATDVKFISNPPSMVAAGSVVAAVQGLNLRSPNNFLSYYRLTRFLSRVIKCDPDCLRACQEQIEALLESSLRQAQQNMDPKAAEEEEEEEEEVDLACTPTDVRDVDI
Experimental: ALT, Palbociclib alone or in combination were added to or expressed in MCF7 breast cancer cells on day 2 post plating. […] ALT is expressed from an ALT-MCF7 tetracycline inducible cell line generated in the Blain lab. When tetracycline is added to the cell culture media, ALT is expressed in these cells. Vector: no tetracycline was added, so no ALT induction was detected. Drugs and media were replaced every two days. Cells were harvested every two days, lysed and used in immunoblot analysis.

cdk2 = target: T2, cdk2 (Homo sapiens, UniProt P24941); test: Immunoblot of cdk2T160 as measure of activated cdk2 (FIG. 10); assay type: cell-based; conditions: MCF7, drugs at IC50
T2 construct: added to or expressed in MCF7 breast cancer cells on day 2 post plating; endogenous in cells; host or cells: MCF7 (ALT-MCF7 tetracycline-inducible line)
Experimental: FIG. 10: ALT BRK inhibits both CDK4 and CDK2. ALT, Palbociclib alone or in combination were added to or expressed in MCF7 breast cancer cells on day 2 post plating. Drugs were added at their IC50 concentration, based on previous results. ALT is expressed from an ALT-MCF7 tetracycline inducible cell line generated in the Blain lab. When tetracycline is added to the cell culture media, ALT is expressed in these cells. Vector: no tetracycline was added, so no ALT induction was detected. Drugs and media were replaced every two days. Cells were harvested every two days, lysed and used in immunoblot analysis. Actin: loading control. pRBser780 is a phospho-specific antibody that recognizes sites phosphorylated by cdk4, so is a measure of active cdk4. cdk2T160 recognizes a required phosphorylation event on residue […] and is a measure of activated cdk2.
Additional experiments were performed assessing activity of Brk in combination with Palbociclib. The data presented in FIGS. 9A and 9B reveal that Palbociclib and Brk inhibit proliferation for 2 days, and then resistance is observed (proliferation increases). Alt maintained arrest for roughly 10 days (50% inhibition of proliferation is detected). […] Alt-Brk/Palbociclib combination leads to a more durable cell cycle arrest. Mono therapy treated cells start to become resistant between day 8-10. […]

- cdk4 activity (pRBser780) (cdk4): inhibits cdk4
- cdk2 activity (cdk2T160) (cdk2): inhibits cdk2
B1: Alt-Brk: alternative splice variant of Brk (SEQ ID NO: 17), 15 KD protein with SH3 domain, lacks kinase domain (protein, listed as Homo sapiens)
chain: MVSRDQAHLGPKYVGLWDFKSRTDEELSFRAGDVFHVARKEEQWWWATLLDEAGGAVAQGYVPHNYLAERETVESEPAGHAGCAALQDLAACRGPAAPERGGVLPQPARACELPQGPEPVPRPAAGRALPEARA
- time arrested before escape (proliferation) (MCF7-ALT cells): 18 days
